The values below come from publication PMC4605308 (Nucleic Acids Research, 2015).

This assay addresses T1, hexahistidine-tagged ubiquitin (the ubiquitin part of the Rad6^iso∼Ub conjugate) (human, UniProt P0CG48 1-76, C-terminus linked to K88 of Rad6 C88K via an isopeptide linkage).
T1 construct: ubiquitin, human; The final model holds two additional N-terminal residues from the plasmid vector; also called His6-Ub; Ub-His6; source: in the crystal conjugated to Rad6^C88K
Kind of assay: crystal structure; Rad6^iso∼Ub conjugate; sitting drop vapor diffusion at 20°C, 24% PEG 300, 50 mM sodium acetate, pH 5.4; one conjugate in the asymmetric unit, contacts between conjugates in the crystal. To be noted: both partners purified.

B1: Rad6 C88K (the Rad6 part of the Rad6^iso∼Ub conjugate) (enzyme, Saccharomyces cerevisiae, UniProt P06104 1-172, looked up)
chain: MSTPARRRLMRDFKRMKEDAPPGVSASPLPDNVMVWNAMIIGPADTPYEDGTFRLLLEFDEEYPNKPPHVKFLSEMFHPNVYANGEIKLDILQNRWTPTYDVASILTSIQSLFNDPNPASPANVEAATLFKDHKSQYVKRVKETVEKSWEDDMDDMDDDDDDDDDDDDDEAD
modifications: lysine at position 88 linked to the ubiquitin C-terminus via an isopeptide linkage
notes: Rad6, Saccharomyces cerevisiae, with C88K; Written on its own for the non-covalent contact between Rad6 of one conjugate and ubiquitin of another in the crystal; source: E. coli Rosetta2 DE3 pLysS, purified; in the crystal conjugated to His6-Ub; not shown: MBP, N-terminal, cleaved; His6, N-terminal, cleaved
For the molecule B1, the binding result was “binds”.
